Laboratory results as given in publication PMC9864931 (Vaccines, 2022).

Molecular target: E. coli-produced Wuhan-Hu1 RBD (receptor binding domain of the SARS-CoV-2 spike protein, a.a. 319-542) (SARS-CoV-2 (Wuhan-Hu1), UniProt P0DTC2)
Experiment: ELISA
Details: both partners purified

B1: mAb WRAIR-2057 (antibody, V domains shown)
VH: EVQLVQSGAEVKKPGESLKISCKGSGYSFISYWIAWVRQMPGKGLEWMGIIYPGDSDTTYSPSFQGQVTISADKSISTAYLQWSSLKASDTAIYYCARLLYYSDSSPLDSWGQGTLVTVSS
VL: DIQMTQSPSSLSASVGDRVTITCRASQSISTYLNWYQQKPGKAPNLLIYAASSLQSGVPSRFSGSGSGTDFTLTISSLQPEDFATYYCQQSHSTPRTFGPGTKVDIK
binding result: binds
